Results on 1 molecule are retold here after US20050221343A1 (LOS ALAMOS NATIONAL SECURITY, published 2005).

No end group written: not given here.

This assay has as its target T1, folding reporter GFP 1-10 (Aequorea victoria, UniProt P42212 1-214 = GFP).
T1 construct: range 1-214; also called folding reporter GFP fragment 1-214; FR
The experiment in a line: co-expression from compatible pET vectors in E. coli, colony fluorescence (split GFP complementation).

T1 sequence (P42212 other isoform, or with tags, fused parts or gaps limits assumed): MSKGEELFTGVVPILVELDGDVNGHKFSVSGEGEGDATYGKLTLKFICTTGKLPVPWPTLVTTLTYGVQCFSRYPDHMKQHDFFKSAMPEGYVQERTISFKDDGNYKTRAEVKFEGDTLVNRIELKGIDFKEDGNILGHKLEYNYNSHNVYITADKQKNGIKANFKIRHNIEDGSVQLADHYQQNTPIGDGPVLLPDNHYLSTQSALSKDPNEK

B1: GFP S11 wild type (peptide)
peptide: KRDHMVLLEFVTAAGITGT
modifications: also: fused to sulfite reductase
notes: also called GFP S11 214-230; wild type GFP S11
For B1, the binding result is listed as “no binding”.
